Assays:
Test in all cases: cell-based or functional assay
[1] = molecular target: T1, HIV-1 DU422.1 envelope (Env) on Env.IMC.LucR virus (HIV-1 clade C)
[2] = molecular target: T2, HIV-1 DU172.17 envelope (Env) on Env.IMC.LucR virus (HIV-1 clade C)
[3] = molecular target: T3, HIV-1 CNE20 envelope (Env) on Env.IMC.LucR virus (HIV-1 clade BC)
[4] = molecular target: T4, HIV-1 CAP45.2.00.G3 envelope (Env) on Env.IMC.LucR virus (HIV-1 clade C)
[5] = molecular target: T5, HIV-1 X1632_S2_B10 envelope (Env) on Env.IMC.LucR virus (HIV-1 clade G)
[6] = molecular target: T6, HIV-1 AC10.0.29 envelope (Env) on Env.IMC.LucR virus (HIV-1 clade B)
[7] = molecular target: T7, HIV-1 REJO4541.67 envelope (Env) on Env.IMC.LucR virus (HIV-1 clade B)
[8] = molecular target: T1, HIV-1 DU422.1 envelope (Env) on …; remark: listed apart in the source
[9] = molecular target: T2, HIV-1 DU172.17 envelope (Env) on …; remark: listed apart in the source
[10] = molecular target: HIV-1 ZM233M.PB6 envelope (Env) on Env.IMC.LucR virus (HIV-1 clade C)
[11] = molecular target: T3, HIV-1 CNE20 envelope (Env) on …; remark: listed apart in the source
[12] = molecular target: T4, HIV-1 CAP45.2.00.G3 envelope (Env) on …; remark: listed apart in the source
[13] = molecular target: HIV-1 WITO4160.33 envelope (Env) on Env.IMC.LucR virus (HIV-1 clade B)
[14] = molecular target: HIV-1 THRO4156.18 envelope (Env) on Env.IMC.LucR virus (HIV-1 clade B)
[15] = molecular target: T5, HIV-1 X1632_S2_B10 envelope (Env) on …; remark: listed apart in the source
[16] = molecular target: T6, HIV-1 AC10.0.29 envelope (Env) on …; remark: listed apart in the source
[17] = molecular target: T7, HIV-1 REJO4541.67 envelope (Env) on …; remark: listed apart in the source
[18] = molecular target: T2, HIV-1 DU172.17 envelope (Env) on …; remark: listed apart in the source

B1: NVS49-L1A2 (antibody, V domains shown)
VH: ADLVQSGAVVKKPGDSVRISCEAQGYRFPDYIIHWIRRAPGQGPEWMGWMNPMGGQVNIPWKFQGRVSMTRDTSIETAFLDLRGLKSDDTAVYYCVRDRSNGSGKRFESSNWFLDLWGRGTAVTIQS
VL: QSALTQPRSVSASPGQSVTISCTGTHNLVSWCQHQPGRAPKLLIYDFNKRPSGVPDRFSGSGSGGTASLTITGLQDDDDAEYFCWAYEAFGGGTKLTVL
- IC50 of virus neutralization (TZM-BL, luciferase); L1A2 lot CRO #1, 293 cells [1]: > 50 µg/mL
- IC50 of virus neutralization (TZM-BL, luciferase); L1A2 lot CRO #2, 293 cells [1]: > 50 µg/mL
- IC50 of virus neutralization (TZM-BL, luciferase); L1A2 lot CRO #2, CHO cells [1]: > 50 µg/mL
- IC50 of virus neutralization (TZM-BL, luciferase); L1A2 lot CRO #1, 293 cells [2]: 0.268 µg/mL
- IC50 of virus neutralization (TZM-BL, luciferase); L1A2 lot CRO #2, 293 cells [2]: 0.279 µg/mL
- IC50 of virus neutralization (TZM-BL, luciferase); L1A2 lot CRO #2, CHO cells [2]: 0.507 µg/mL
- IC50 of virus neutralization (TZM-BL, luciferase); L1A2 lot CRO #1, 293 cells [3]: 0.089 µg/mL
- IC50 of virus neutralization (TZM-BL, luciferase); L1A2 lot CRO #2, 293 cells [3]: 0.124 µg/mL
- IC50 of virus neutralization (TZM-BL, luciferase); L1A2 lot CRO #2, CHO cells [3]: 0.092 µg/mL
- IC50 of virus neutralization (TZM-BL, luciferase); L1A2 lot CRO #1, 293 cells [4]: 0.132 µg/mL
- IC50 of virus neutralization (TZM-BL, luciferase); L1A2 lot CRO #2, 293 cells [4]: 0.209 µg/mL
- IC50 of virus neutralization (TZM-BL, luciferase); L1A2 lot CRO #2, CHO cells [4]: 0.162 µg/mL
- IC50 of virus neutralization (TZM-BL, luciferase); L1A2 lot CRO #1, 293 cells [5]: > 50 µg/mL
- IC50 of virus neutralization (TZM-BL, luciferase); L1A2 lot CRO #2, 293 cells [5]: > 50 µg/mL
- IC50 of virus neutralization (TZM-BL, luciferase); L1A2 lot CRO #2, CHO cells [5]: > 50 µg/mL
- IC50 of virus neutralization (TZM-BL, luciferase); L1A2 lot CRO #1, 293 cells [6]: > 50 µg/mL
- IC50 of virus neutralization (TZM-BL, luciferase); L1A2 lot CRO #2, 293 cells [6]: > 50 µg/mL
- IC50 of virus neutralization (TZM-BL, luciferase); L1A2 lot CRO #2, CHO cells [6]: > 50 µg/mL
- IC50 of virus neutralization (TZM-BL, luciferase); L1A2 lot CRO #1, 293 cells [7]: 0.054 µg/mL
- IC50 of virus neutralization (TZM-BL, luciferase); L1A2 lot CRO #2, 293 cells [7]: 0.072 µg/mL
- IC50 of virus neutralization (TZM-BL, luciferase); L1A2 lot CRO #2, CHO cells [7]: 0.045 µg/mL
- IC50 of virus neutralization (TZM-BL, luciferase) [8]: > 50 µg/mL
- IC50 of virus neutralization (TZM-BL, luciferase) [9]: 0.279 µg/mL
- IC50 of virus neutralization (TZM-BL, luciferase) [10]: 0.613 µg/mL
- IC50 of virus neutralization (TZM-BL, luciferase) [11]: 0.124 µg/mL
- IC50 of virus neutralization (TZM-BL, luciferase) [12]: 0.209 µg/mL
- IC50 of virus neutralization (TZM-BL, luciferase) [13]: 0.2 µg/mL
- IC50 of virus neutralization (TZM-BL, luciferase) [14]: 1.04 µg/mL
- IC50 of virus neutralization (TZM-BL, luciferase) [15]: > 50 µg/mL
- IC50 of virus neutralization (TZM-BL, luciferase) [16]: > 50 µg/mL
- IC50 of virus neutralization (TZM-BL, luciferase) [17]: 0.072 µg/mL

B2: Germ12_NglycoSA_CysCV (antibody, V domains shown)
VH: QVDLVQSGAVVKKPGDSVRVSCEAQGYRFPDYIIHWIRRAPGQGPEWMGWMNPMGGQVNIPWKFQGRVSMTRDTSIETAYMDLRGLRSDDTAVYYCVRDRSNGAGKRFESSNWFLDLWGRGTLVTVSS
VL: QSALTQPRSVSGSPGQSVTISCTGTHNLVSWVQHQPGRAPKLLIYDFNKRPSGVPDRFSGSGSGGTASLTISGLQDEDDAEYFCWAYEAFGGGTKLTVL
- IC50 of virus neutralization (TZM-BL, luciferase) [8]: > 50 µg/mL
- IC50 of virus neutralization (TZM-BL, luciferase) [9]: 0.714 µg/mL
- IC50 of virus neutralization (TZM-BL, luciferase) [10]: 0.731 µg/mL
- IC50 of virus neutralization (TZM-BL, luciferase) [11]: 0.059 µg/mL
- IC50 of virus neutralization (TZM-BL, luciferase) [12]: 0.047 µg/mL
- IC50 of virus neutralization (TZM-BL, luciferase) [13]: 0.488 µg/mL
- IC50 of virus neutralization (TZM-BL, luciferase) [14]: 11.7 µg/mL
- IC50 of virus neutralization (TZM-BL, luciferase) [15]: > 50 µg/mL
- IC50 of virus neutralization (TZM-BL, luciferase) [16]: > 50 µg/mL
- IC50 of virus neutralization (TZM-BL, luciferase) [17]: ≤ 0.02 µg/mL

B3: NglycoND (antibody, V domains shown)
VH: ADLVQSGAVVKKPGDSVRISCEAQGYRFPDYIIHWIRRAPGQGPEWMGWMNPMGGQVNIPWKFQGRVSMTRDTSIETAFLDLRGLKSDDTAVYYCVRDRSDGSGKRFESSNWFLDLWGRGTAVTIQS
VL: QSALTQPRSVSASPGQSVTISCTGTHNLVSWCQHQPGRAPKLLIYDFNKRPSGVPDRFSGSGSGGTASLTITGLQDDDDAEYFCWAYEAFGGGTKLTVL
- IC50 of virus neutralization (TZM-BL, luciferase) [8]: > 50 µg/mL
- IC50 of virus neutralization (TZM-BL, luciferase) [9]: 18.3 µg/mL
- IC50 of virus neutralization (TZM-BL, luciferase) [11]: > 50 µg/mL
- IC50 of virus neutralization (TZM-BL, luciferase) [12]: 0.077 µg/mL
- IC50 of virus neutralization (TZM-BL, luciferase) [15]: > 50 µg/mL
- IC50 of virus neutralization (TZM-BL, luciferase) [16]: > 50 µg/mL
- IC50 of virus neutralization (TZM-BL, luciferase) [17]: 0.062 µg/mL
- fold increase in neutralization IC50 as compared to parent mAb L1A2 [18]: ~65 fold
